Reference: patent US9988424 (DUKE UNIVERSITY, dated 2018)
Residue numbers refer to the chain shown, from its start. Read-outs that look alike come from different tables or passages of the source.

Assays:
Test in all cases: ELISA, OD405
[1] = target: T1, B.HXB/BAL gp140CFI (HIV-1, UniProt P04578 33-680)
T1 construct: also called B.HxB/Ba gp140 CFI

[2] = target: B.040 gp140C
[3] = target: T2, B.63521_V1V2 Tags
T2 Env construct: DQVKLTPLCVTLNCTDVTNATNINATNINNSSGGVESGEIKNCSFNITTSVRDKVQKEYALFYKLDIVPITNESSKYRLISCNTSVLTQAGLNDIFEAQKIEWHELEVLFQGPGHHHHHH

[4] = target: T3, AE.con gp140CF
T3 construct: also called AE.con.env03 gp140CF

[5] = target: B. 681-7 gp140C
[6] = target: T4, G.con gp140CF
T4 construct: also called G.con.env03 gp140CF

[7] = target: T5, A.9004SS V1V2 Tags
T5 Env construct: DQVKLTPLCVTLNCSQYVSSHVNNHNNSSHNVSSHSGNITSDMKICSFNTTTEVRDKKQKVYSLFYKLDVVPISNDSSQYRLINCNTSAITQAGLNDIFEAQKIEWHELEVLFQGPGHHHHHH

[8] = target: Con 6 gp120
[9] = target: B. 684-6 gp140C
[10] = target: B.9021 gp140C (HIV-1)
[11] = target: T6, B.Case A2 V1/V2 Tags
T6 Env construct: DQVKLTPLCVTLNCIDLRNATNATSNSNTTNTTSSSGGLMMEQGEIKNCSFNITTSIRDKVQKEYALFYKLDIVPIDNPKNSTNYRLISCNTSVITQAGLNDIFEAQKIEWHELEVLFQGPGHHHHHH

[12] = target: T7, SIV CPZ US-1 gp140CF (SIVcpz)
T7 construct: also called US-1 SIVCPZ gp140CF
T7 chain: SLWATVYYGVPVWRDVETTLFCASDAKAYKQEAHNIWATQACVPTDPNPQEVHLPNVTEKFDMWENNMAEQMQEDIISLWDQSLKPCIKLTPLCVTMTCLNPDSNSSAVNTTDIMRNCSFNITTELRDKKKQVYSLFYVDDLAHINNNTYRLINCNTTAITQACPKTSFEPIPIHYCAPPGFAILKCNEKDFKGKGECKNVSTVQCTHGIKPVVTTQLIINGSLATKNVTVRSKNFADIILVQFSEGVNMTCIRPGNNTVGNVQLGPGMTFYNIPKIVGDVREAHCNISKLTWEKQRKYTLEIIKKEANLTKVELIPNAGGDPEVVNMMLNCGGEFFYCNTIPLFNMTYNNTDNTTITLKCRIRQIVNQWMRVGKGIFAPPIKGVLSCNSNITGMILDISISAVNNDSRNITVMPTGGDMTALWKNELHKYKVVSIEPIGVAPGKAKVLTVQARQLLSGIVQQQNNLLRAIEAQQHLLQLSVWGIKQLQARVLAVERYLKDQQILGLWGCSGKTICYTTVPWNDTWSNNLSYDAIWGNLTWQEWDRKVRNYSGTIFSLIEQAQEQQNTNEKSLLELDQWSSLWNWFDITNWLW

[13] = target: T8, B.62357 140C
T8 construct: also called B.62357 gp140C

[14] = target: T9, B.con gp140CF
T9 construct: also called B.con.env03 gp140CF

[15] = target: T10, D.9009SA V1V2 Tags
T10 Env construct: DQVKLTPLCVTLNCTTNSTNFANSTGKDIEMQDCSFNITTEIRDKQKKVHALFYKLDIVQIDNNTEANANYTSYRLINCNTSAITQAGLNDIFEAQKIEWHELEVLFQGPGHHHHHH

[16] = target: T11, gp70 C.1086 V1/V2 (HIV-1 V1V2 on murine leukemia virus gp70)
T11 construct: also called C.gp70 1086C V1V2; C.1086gp70V1V2
T11 chain: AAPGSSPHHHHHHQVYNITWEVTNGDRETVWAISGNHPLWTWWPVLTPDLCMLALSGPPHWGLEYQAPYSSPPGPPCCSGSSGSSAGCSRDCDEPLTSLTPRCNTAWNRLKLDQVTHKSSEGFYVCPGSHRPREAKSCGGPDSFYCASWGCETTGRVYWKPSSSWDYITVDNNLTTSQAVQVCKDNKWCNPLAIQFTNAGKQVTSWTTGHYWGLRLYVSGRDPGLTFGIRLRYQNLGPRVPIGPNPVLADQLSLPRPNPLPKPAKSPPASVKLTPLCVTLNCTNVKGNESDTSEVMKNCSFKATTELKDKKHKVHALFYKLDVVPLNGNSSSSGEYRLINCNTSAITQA

[17] = target: T12, AE.97CNG2XF gp140CF (HIV-1)
T12 construct: also called E.97CNGX2F gp140CF

[18] = target: B.63521 gp140C
[19] = target: C.CAP206 gp140CF.12 (HIV-1)
[20] = target: T13, C.1086 gp140
T13 construct: also called C.1086gp140C

[21] = target: T1, B.HXB/BAL gp140CFI; remark: listed apart in the source
[22] = target: B.040 gp140C; remark: listed apart in the source
[23] = target: T2, B.63521_V1V2 Tags
[24] = target: T3, AE.con gp140CF; remark: listed apart in the source
[25] = target: B. 681-7 gp140C; remark: listed apart in the source
[26] = target: T4, G.con gp140CF; remark: listed apart in the source
[27] = target: T5, A.9004SS V1V2 Tags
[28] = target: Con 6 gp120; remark: listed apart in the source
[29] = target: B. 684-6 gp140C; remark: listed apart in the source
[30] = target: T6, B.Case A2 V1/V2 Tags
[31] = target: T7, SIV CPZ US-1 gp140CF
[32] = target: T8, B.62357 140C; remark: listed apart in the source
[33] = target: T9, B.con gp140CF; remark: listed apart in the source
[34] = target: T10, D.9009SA V1V2 Tags
[35] = target: T11, gp70 C.1086 V1/V2
[36] = target: T12, AE.97CNG2XF gp140CF; remark: listed apart in the source
[37] = target: B.63521 gp140C; remark: listed apart in the source
[38] = target: C.CAP206 gp140CF.12 (HIV-1); remark: listed apart in the source
[39] = target: T13, C.1086 gp140; remark: listed apart in the source

Measured: binding result

B1: CH01_RUA1 (antibody, V domains shown)
VH: EVQLVESGGGVVRPGGSLRLSCAASGFTFDDYGMSWVRQAPGKGLEWVSGINWNGGSTGYADSVKGRFTISRDNAKNSLYLQMNSLRAEDTALYYCARGTDYTIDDQGIRYQGSGTFWYFDLWGRGTLVTVSS
VL: not shown
notes: also called CH01 UA 1; CH01_UA 1
no binding (tested: 10 ug/ml): [1] | [2] | [3] | [4] | [5] | [6] | [7] | [8] | [9] | [10] | [11] | [12] | [13] | [14] | [15] | [16] | [17] | [18] | [19] | [20]

B2: CH01_RUA2 (antibody, V domains shown)
VH: B1 VH with R110L
VL: not shown
notes: also called CH01 UA 2; CH01_UA 2
no binding (tested: 10 ug/ml): [21] | [22] | [23] | [24] | [25] | [26] | [27] | [28] | [29] | [30] | [31] | [32] | [33] | [34] | [35] | [36] | [37] | [38] | [39]
